Results on six molecules are retold here after US20020095023A1 (published 2002).

Ends that are not written are not given here.

As usually defined, the Kd is the constant that tells how readily two partners part at equilibrium. Higher therefore signals a looser complex.

The labels stand for the following.
B1: Recombinant rat HRF (IgE-dependent histamine-releasing factor) (ligand, UniProt P63029 1-172, looked up)
chain: MIIYRDLISHDELFSDIYKIREIADGLCLEVEGKMVSRTEGAIDDSLIGGNASAEGPEGEGTESTVVTGVDIVMNHHLQETSFTKEAYKKYIKDYMKSLKGKLEEQKPERVKPFMTGAAEQIKHILANFNNYQFFIGENMNPDGMVALLDYREDGVTPFMIFFKDGLEMEKC
notes: Expressed in E. coli from pRSET-A and purified on a Ni column; also called recombinant HRF protein; translationally controlled tumor protein; not shown: N-terminal His-tag leader of the pRSET-A vector

The target of experiment [1] is B1. Briefly: competition ELISA on HRF-coated wells against phage ph2, anti-M13-HRP. Here is the method:
(§1) Also, as a negative control, random peptide (ran, amino acid sequence: LMEGCRA) was synthesized. To the wells coated with HRF was added each 30 μl of the peptide solution serially diluted in 6% BSA/PBS from 1000 nM (1000, 100, 10, 1, 0.1, 0.01, 0.001 nM) and the solution was allowed to stand at room temperature for 30 minutes. The 1/25-fold diluted phage solution was added thereto and the whole solution was further allowed to stand for 2 hours. The solution was washed five times with PBST and then, each 100 μl of HRP-conjugated anti-M13 antibodies were added thereto and then, the resulting mixture was allowed to stand for 1 hour. The mixture was washed 6 times with PBST and once with PBS, and thereto was added each 100 μl of peroxydase substrate solution to examine the competition. It can be seen from the above figures that both of the synthetic peptides p2 and p4 bind to HRF competitively with phage clones ph2 and ph4.
b) In order to test whether or not p1, p2 and p4 bind to the identical site on HRF, the wells were coated with HRF according to the substantially same procedure as in the above a). As shown FIG. 14c, p1, p2 and p4 bound to the identical site on HRF.
For orientation: An ELISA detects its analyte on a solid surface through an enzyme-linked reagent.

Experiment [2] deals with B1. Nature of the experiment: competition ELISA on HRF-coated wells, peptide added before phage ph2 (1/25 dilution), anti-M13-HRP. The procedure: as §1
The target of experiment [3] is B1. Nature of the experiment: competition ELISA on HRF-coated wells, peptide added before phage ph4 (1/25 dilution), anti-M13-HRP. The procedure: as §1
The target in experiment [4] is T1, (Na,K)ATPase as flowed in the Biacore analysis.
T1 construct: domain: large cytoplasmic loop; also called (Na,K)ATPase large cytoplasmic loop
Nature of the experiment: Biacore (SPR); HRF immobilised on CM5 sensor chip, (Na,K)ATPase flowed. The procedure:
Recombinant rat HRF was immobilized on CM5 sensor chip at a concentration of […] in pH 4.0, 10 mM acetate and then, corrected by flowing HBS buffer (0.01 M Hepes, pH 7.4, 0.15 M NaCl, 3 mM EDTA, 0.005% surfactant P20). […] by flowing 50 mM NHS (N-hydroxysuccinimide) and 200 mM EDC(N-ethyl-N-(3-[…])carbodiimide). The binding affinity was measured by flowing (Na,K)ATPase.
In general terms: SPR reads the build-up and loss of mass on a sensor chip optically.

The target of experiment [5] is T2, BSA (bovine, UniProt P02769).
T2 construct: control coating of the ELISA wells; also called bovine serum albumin
T2 sequence (P02769 25-607 limits assumed): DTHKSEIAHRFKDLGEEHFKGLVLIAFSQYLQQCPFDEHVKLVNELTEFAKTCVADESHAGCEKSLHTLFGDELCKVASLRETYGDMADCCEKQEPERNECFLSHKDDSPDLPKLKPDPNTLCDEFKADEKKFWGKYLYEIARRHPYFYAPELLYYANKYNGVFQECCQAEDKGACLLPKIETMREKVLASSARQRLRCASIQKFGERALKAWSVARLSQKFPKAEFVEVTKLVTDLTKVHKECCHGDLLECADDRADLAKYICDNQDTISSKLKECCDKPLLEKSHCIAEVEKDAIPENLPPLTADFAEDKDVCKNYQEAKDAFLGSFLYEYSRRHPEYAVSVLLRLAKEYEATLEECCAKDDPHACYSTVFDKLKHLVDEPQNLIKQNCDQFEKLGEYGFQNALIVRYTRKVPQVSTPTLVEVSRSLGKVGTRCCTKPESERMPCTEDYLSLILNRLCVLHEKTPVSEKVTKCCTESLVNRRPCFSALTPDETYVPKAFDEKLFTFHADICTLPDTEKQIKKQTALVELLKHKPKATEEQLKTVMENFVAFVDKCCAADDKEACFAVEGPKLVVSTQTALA
Briefly: phage ELISA on coated wells, anti-M13-HRP. The procedure: That is, the phage plaques were transferred to 1 ml of ER2537 culture solution cultivated in SB medium (OD₆₀₀=0.5˜1) and then, cultured in 37° C. incubator (rpm 250) for 5 hours. Each 100 μl of the culture solution was added to 900 μl of SB medium and cultured overnight. The culture solution was centrifuged twice at 14,000 rpm for 5 minutes per centrifugation and the obtained supernatant was used for ELISA.
To plastic wells, each of which was coated with HRF or BSA (control), 50 μl of a solution obtained by diluting each isolated phage solution with the equivalent amount of 6% BSA/PBS, and the resulting mixture was allowed to stand for 2 hours. After washing five times with PBST, 100 μl of HRP-conjugated anti-M13 antibodies (Pharmacia) diluted in 3% BSA/PBS with the ratio of 1:5000 were added thereto and the whole was allowed to stand for 1 hour. After washing six times with PBST and then, once with PBS, 100 μl of peroxydase substrate solution was added thereto. The chromogenicity was measured using ELISA reader at 405 nm. From FIG. 12, it can be seen that the phages ph1, ph2 and ph4, especially ph2 and ph4, specifically bind to HRF.

Consider LVTYPLP [synthetic heptapeptide p1], for which the “IC50 (read off the curve)” value in experiment [1] was roughly 20 nM.
Consider WYVYPSM [synthetic heptapeptide p2], for which the “IC50 (read off the curve)” value in experiment [2] was roughly 40 nM.
WEFPGWM [synthetic heptapeptide p4]: the “IC50 (read off the curve)” value in experiment [3] was roughly 10 nM; in experiment [1] it was roughly 20 nM.
In experiment [4], B1 gave a Kd of 850 nM.

B2: phage ph2 displaying peptide p2 (peptide)
peptide: WYVYPSM
modifications: also: displayed on phage coat protein
notes: Whole phage particle in the assay; also called ph2 clone; not shown: phage coat protein of the heptamer library (New England Biolabs); linker and coat protein not described
Consider B2, for which, in experiment [5], the binding result is on record as “no binding”.

B3: phage ph4 displaying peptide p4 (peptide)
peptide: WEFPGWM
modifications: also: displayed on phage coat protein
notes: Whole phage particle in the assay; not shown: phage coat protein of the heptamer library (New England Biolabs); linker and coat protein not described
On to B3, for which the binding result in experiment [5] is “no binding”.
